Assay results taken from the nanobody polyreactivity screen of Harvey et al. (2022).

test: yeast display, Sf9 membrane polyspecificity reagent, FACS + sequencing; frameworks hold sequencing errors
How it was run: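 Polyreactivity labels are assigned by the sorting gate from which each nanobody was recovered. The gates were low and high (top ~1%), set on anti-HA fluorescence for expression and streptavidin fluorescence for reagent binding. Before sorting, galactose-induced (36–48 hours) yeast display cells were stained for 1 hour at 4 °C with 10% biotinylated, detergent-solubilized Sf9 membrane reagent.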

Row | Sequence | polyreactivity (PSR sort gate)
1 | QVQLVESGGGLVQAGGSLRLSCAASGSTNGRYAMGWYRQAPGKERELVAAISYSGGSTYYADTVKGRFTISRDNAKNTVYLQMNSLKPEDTAVYYCAAQYVRKYRVSRGYNYWGQGTQVTVSS | high polyreactivity
2 | QVQLVESGGGLVQAGGSLRLSCAASGSIFGANTMGWYRQAPGKERELVAAISSGGNTYYADSVKGRFTISRDNAKNTVYLQMNSLKPEDTAVYYCNAQTRYRYQYGYLGGTGYNYWGQGTQVTVSS | low polyreactivity
3 | QDQLVESGGGLVQAGGSLRLSCAASGLIFTGNVMGWYRQEPGKERELVAAISRSGGRTYYADSVKGRFTISRDNAKNTVYLQMNSLKREDTAVYYCNKVSPERVYYGSYFRYYYWGQGTQVTVSS | high polyreactivity
4 | QDQLVESGGGLVQAGGSLRLSCAASGSILRQYAMGWYRQAPGKERELVATITGDGSTNYADSVKGRFTISRDNAKNTVYLQMHSLKPEDTAVYYCAVIGYHYSAISPPSQTRQGYDYWGQGTQVTVSS | low polyreactivity
5 | QVQLVESGGGLVQAGGSLRLSCAASGSTFWSYAMGWYRQAPGKEREFVAAISRSGDSTYYADSVKGRFTISRDNAKNTVYLQMNSLNPEDTAVYYCNAKLVRRSYGSYYYTYDYWGQGSQVTVSS | high polyreactivity
6 | QVKLEESGGRLVQAGGTLRLRCAASGIIYRFYTIGWYRQAPGKERELVAAIRSGGRTYYADSVKGRFTISRDNAKNTVYLQINSLKPEDSAVYYCAKEPSRYSRYNYWGQGTQVTVSS | high polyreactivity
7 | QVQLVESGGGLVQAGGSLRLSCAASGFTFYDYAMGWYRQAPGKERELVAAISWDGDRTYYADSVNGRFTISRDNAKNTVYLQMNSLKPEDTAVYYCNAEYSSFSDVQKDSDMDYWGQGTQVTVSS | low polyreactivity
8 | QVQLVESGGGLVQAGGSLRLSCAASGFIIKFYAMGWYRPAPGKERELVAAISWRGGSTYYADSVKGRFTISRDIAKNTVYLQMNSLKPEDTAVYYCNKAGKARYWGRYNYWGQGTQVTVSS | high polyreactivity
9 | QVQLVESGGGLVQAGGSLRLSCAASGRIFGAYAMGWYRQAPGKERELVAAINRGGSTNYADSVKGRFTISRDNAKNTVYLQMNSLKPEDTAVYYCAKRSSGRHFTYDYWGQGTQVTVSS | low polyreactivity
10 | QVQLVESGVGLVQAGGSLPLSCAASGRTFRYYTMGSYRQAPGKERELVAAITQSGDSTYYADSVKGRFTISRDNAKNTFYLQMNSLKPEDTAVYYCNKAWRRRGLYDYWGQGTQVTVSS | high polyreactivity
11 | QVQLQESGGGLVQAGGSLRLTCAASGSISYPRTMGWYRQAPGKEREFVAGIGVGGTTYYADSVKGRYTISRDNAKNTVYLQMNSLKPEHAAVDYCAVAAYYDKYYVYWGQGTQVTVSC | low polyreactivity
12 | QVQLVESGGGLVQAGGSLRLSCAASGFTFYYNAMGCYRQAPGKERELVASISSNGTSTYYADSVKGRFTISRDNAKNTVYLQMNSLKPEDTAVYYCNVDIFDPRTYDYWGQGTQVTVSS | low polyreactivity
13 | QFQLVESGGGLVQAGGSLRLSCAASGITFFPYAMGWYRQAPGKERELVASISDGGGTNYADSVKGRFTISRDNAKNTVYLQMNSLKPEDTAVYYCATDASTYAYYGGDYWGQGTQVTVSS | low polyreactivity
14 | QVQLVESGGGLVQAGGSLRLSCAASGFILKPYAMGWYRQAPWKERELVAAITYSGSSTYYADSVKGRFTISRDNAKNTVYLQMNSLKPEDTAVYYCAARDWSHPRRLFYWGQGTQVTVSS | high polyreactivity
15 | QVQLVESGGGLVQAGGSLRLRCAASGYIIKYNAMGWYRQAPGKERELVAAISSIGGRTYYADSVKGRFTISRDNAKNTVYLQMNSLKPEDTAVYYCNAVGGRYTGWRYDYWGQGPQVTVSS | high polyreactivity
16 | QVQLVESGGGLVQAGGSLRLSCAASGSIFNYYAMGWYRQAPGKVRELVATISSGGNTKFADSVKGRFTISRDNAKNTVYLQMKSLKPEDTAVYFCGARWQHSGYRDRYCYDYWGQGTQVTVSS | low polyreactivity
17 | QVQLVESGGGLVQAGGSLRLSCAAYGRIFYAYAMGWYRQAPGKERELVAAITNGGGTTYYADSVKGRFTISRDNAKNTVYLQMNSLKPEDTAVYYCNAVRYTIAHGFYYVPEDYWGQGTQVTVSS | low polyreactivity
18 | QVQLEESGGGLVQAGGSLRLSCAASGSIFGLYAMGWYRQAPGKERELVAAISARGGSTYYADSVKGRFTISRDNAKNTVYLQMNSLKPEDTAVNYCATRQVSAYSYIYDYWGQGTQVTVSS | high polyreactivity
19 | QVQLVESGGGLVQAGGSLRLSCAASGRIFENDMGWYRQAPGKERELVATIRSDGSTNYADSVKGRFTISRDNAKNTVYLQMNSLKPEDTAVYYCAADYLGPDYFFFSNYPYDYWGQGTQVTVSS | low polyreactivity
20 | QVQLVESGGGLVQAGGSLRLSCAASGLIFSDYAMGWYRQAPGKERELVAAISGIGTRTSYADSVKGRFTISRDNAKNTVYLQMNSLKPEDTAVYYCAARYYGFPSTLKYDYWGQGTQVTVSS | high polyreactivity

Row | Sequence | polyreactivity (PSR sort gate)
21 | QVQLVESGGGLVQAGGSLRLSCAASGRTFIVNTMGRYRQAPGKERELVAAITARGGRTYYADSVKGRFTISRDNAKNTVYLQMNSLKPEDTAVYYCNARTPPREAERYYWGLGTQVTVSS | low polyreactivity
22 | QVQLVESGGGLVQAGGSLRLSCAASGSTFDGYAMGWYRQAPGKERELVAAINWGGGSTRYADSVKGRFTISRDNAKNTVYLQMNSVKPEDTAVYYCAARRFAYYFQYLVGGYWGQGTQVTVSS | high polyreactivity
23 | QVQLVESGGGLVQAGGSLRLSCAASGSIFTYYAMGWYRPAPGKERELVATITRRGGRTYYADSVKGRFTISRDNAKNTVYLQMNSLKPEDTAVYYCATRIRTVAYNYWGQGTQVTVSS | high polyreactivity
24 | QVQLVESGGGLVQAGGSLRLSCAASGLIFSYNAMGWYRQAPGKERELVAAISANGGRTYYADSVKGRFTISRDNAKNTVSLQMNSLKPEDTAVYYCAAQGSRKLFYTDSGYWGQGTQVSVSS | high polyreactivity
25 | QVQLVESGGGLVQAGGSLRLSCAASGLTFSINAMGWYIQAPGKERELVAAISRSGGRTYYADSVKGRFTISRDNAKNTVYLQMNSLKPEDTAVYYCAADKTQSHYDYWGQGTQVTVSS | high polyreactivity
26 | QVQLVESGGGLVQAGGSLRLSCAASGSIFIYYAMGWYRQAPGKERELVAAIDYSGDSTYYADSVKGRFTISRDNAKNTVYLQMNSLKPEDTAVYYCAVYYAGWGDYWGQGTQVTVSS | low polyreactivity
27 | QVQLVESGGGLVQAGASLRLSCAASGIILSVYAMGWYRQAPGKERELVAAITTVGNTYYADSVKGRFTISRDNAKNTVYLEMNCLKPEDTAVYYCAAKRWTTYKYNYWGQGTQVTVSS | high polyreactivity
28 | QVQLVESGGGLVQAGGSLRLSCAASGRIFTRYAMGWYRQAPGKERELVAAIDRGGSTYYADSVKGRFTISRDNAKNTVYLQMNSLKPEDTAVYYCAARIKAWGLEFYYWGQGTQVTVSS | high polyreactivity
29 | QVQLVESCGGLVQAGGSLRLSCAASGRNFYFNAMGWYRKAPGKERELVARISTGGITNYADSVKGRFTISRDNAKITVYLQMNSLKPEDTAVYYCAADYRRTWRYNYCGQGTQVTVSS | high polyreactivity
30 | QVQLVESGGGLVHAGGSLRLTCAASGSTFGKYAMGWYRQAPGKERELVAAITWSGASTFYADSVKGRFTISRDNAKNTVYLQMNSMKPEDTAGYYCAARSFKSYYIFDYWGQGTQVTVSS | low polyreactivity
31 | QVQLVESGGGLVQAGGSLRLSCAASGFTFGYYVMGWYRQAPGKERELVAAITSGGRTKYADSVKGRFTISRDNAKNTVYLQMNSLKPEDTAVYYCAAKSRVHVDYWGQGTQVTVSS | high polyreactivity
32 | QVQHVESAGGLVQAGGILRLSCHASGFTIHAYVLGWYRQAPGKERELVAAISSGGSTYYADSVKGRFTISRDNAKNTGYLQMNSLKPEATSVYYCAAAYPYYWHLDFWGQGSQVTVSS | low polyreactivity
33 | QVLLVESGGCLVQEGGSLRFSCAASGFIFAYYAMGWYRPAPGKERELVAAITSDGATYYADSVKGRFTISRDNAKNTVYLQMNSLKPEATAVYYCNTYWLLRPGYIYWGQGTQVTVSS | high polyreactivity
34 | QVQLVESGGGLVQAGGSLRLSCAASGSIFQDYAMGWYRQAPGKERELVAAITSDGSTYYADSVKGRFTISRDNAKNTVYLQMNSLKPEDTAVYYCATDKLYGRTVRMDYWGQGTQVTVSS | low polyreactivity
35 | QVQLVESGGGLVQAGGSLRLSCAASGGIYLDYAMGWYRQAPGKERELVADINSGADTSYADSVKGRFTISRDNAKNTVYLQMNSLKPEDTAVYYCADDIYVFNGQVYSYGYGYWGQGTQVTVSS | low polyreactivity
36 | QVQLVESGGGLVQAGGSLRLSCAASGSTFKAYAMGWYRQAPGKEWELVAAISASGGTTYYADSVKGRFTISRDNAKNTVYLQLKSLKPEDTAVYYCNARHPYTGGRRYPYTRYGYWGQGTQVTVSS | high polyreactivity
37 | QVQLVESGGGLVQAGGSLRLSCAASGRTFFDNAMGWYRQAPGKEREFVAAISYNGGSTYFADSVKGRFTISRDNAKNTVYLQMNSLKPEDTAVYYCAADPNYGYDYWGQGTQVTVSS | low polyreactivity
38 | QVQLVESGGGLVQAGGSLRLSCAASGSIFVWNAMGWYRPAPGKERELVAAIRSDDDSTYYADSVKGRFTISRDNAKNTVYLQMNSLKPEDTAVITALVDSPTFSHVKPWDGGDYWGQGTQVTVSS | low polyreactivity
39 | QVQLVESGGGLVQAGGSLRLSCAASGRNFSSYAMGWYIQAPGKERELVAAITSGGRTKYADSVKGRFTISRDNAKNTVYLQMNSLKPEDTAVYYCAARNHWVRYLRYDYWGQGTQVTVSS | high polyreactivity
40 | QVQLVESGGGLVQAGGSLRLSCAASGFIFSRYAMGWYRQAPGKERELVAAITSGGGTYSADSVKGRFTISRDNAKNTVYLQMNSLKPEDTAVYYCAAGYGPTSTSSVRITAGDHWGQGTQVTVSS | low polyreactivity
